Experimental data: the supplement of paper PMC10567573
± gives the standard deviation.

Experiment: protein stability index of a GFP-peptide fusion (GPS, HEK-293T) (PSI 1-6); higher = more stable
[1] = treatment: DMSO, c terminus: a fixed tail appended
[2] = treatment: MLN4924 1 uM, 8 h, c terminus: a fixed tail appended
[3] = treatment: DMSO, c terminus: native
[4] = treatment: MLN4924 1 uM, 8 h, c terminus: native
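Further: 24-mer peptide tiles fused after GFP, lentivirally expressed, FACS-sorted into six equal bins by GFP/DsRed ratio, decoded by Illumina sequencing, PSI is the read-weighted mean bin number.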

Sequence | protein stability index [1] | protein stability index [2] | protein stability index [3] | protein stability index [4]
ERPMYGRDSAYQSITHYRPVSASR [EMD] | 3.81 ± 0.26 | 3.76 ± 0.28 |  | 
ERRRELVRSQTLPRTSEAQARKAL [SMTNL2] | 5.27 ± 0.39 | 5.27 ± 0.29 |  | 
ERTWPPPAMSPYWRTWMTITQSWQ [C22orf15] | 2.31 ± 0.58 | 1.94 ± 0.32 |  | 
ESAQATFQAHRDKYEKLRGDVAIK [ARFIP2] | 4.37 ± 0.16 | 4.62 ± 0.18 |  | 
ESIVPIPSSNEEIRLVDDAFGKIC [INTS4] | 4.05 ± 0.35 | 4.29 ± 0.32 |  | 
ESKKHQVETAFERLQQELEQQRCL [TRIM15] | 4.61 ± 0.31 | 4.53 ± 0.12 |  | 
ESLSSQLSNLQKESRACLERIQEL [LMNB1] | 4.28 ± 0.14 | 4.38 ± 0.13 |  | 
ESQKKKQQDDSDEYDDDDSAASTS [ZNF207] | 5.7 ± 0.1 | 5.53 ± 0.18 |  | 
ESTNPEKAHETLHQSLSLASSPKG [CDC25A] | 5.37 ± 0.37 | 5.45 ± 0.27 |  | 
ETTGIQIWSEVFTVEKPGGKKVAV [ATL3] | 2.79 ± 0.24 | 3.01 ± 0.2 |  | 
EVLVKSNNLTDRIVVIPGKVEEVS [CARM1] | 3.66 ± 0.19 | 3.8 ± 0.43 |  | 
EVVPALEPTETLLSEKEINAREES [BCL2L13] | 5.6 ± 0.13 | 5.58 ± 0.22 |  | 
EWENNRESLIVFMEQVHRGIKGLV [CPXM2] | 2.27 ± 0.56 | 2.07 ± 0.37 |  | 
EWIRFDQSNVLCSIFGICMVFSGL [PTGFR] | 2.87 ± 0.59 | 3.15 ± 0.071 |  | 
FAAEAGHIDIVKELIKWRAAIVVN [FEM1B] | 2.3 ± 0.28 | 2.02 ± 0.55 |  | 
FCREEMGEVLKSSTFSSGPSDKMK [SPOPL] | 3.53 ± 0.41 | 3.69 ± 0.23 |  | 
FDLERENACATKEQKNHTFPRLNR [PLD5] | 4.55 ± 0.37 | 4.75 ± 0.28 |  | 
FEEQENYFLLCDVLPEDRILREEL [ZNF277] | 3.26 ± 0.16 | 3.5 ± 0.67 |  | 
FEEYALVNQDILENKESWDKILAL [PRIM1] | 3.3 ± 0.31 | 3.6 ± 0.45 |  | 
FETMAIEIEQLLARLTGVNDKMAE [GOSR1] | 3.06 ± 0.2 | 3.15 ± 0.38 |  | 
FGHRFIILDTDEYVLKYMESNAAQ [EFHC1] | 2.25 ± 0.45 | 2.05 ± 0.31 |  | 
FHNAVSAYFAGNQKQLEQTLQQFN [ARFIP2] | 2.45 ± 0.23 | 2.34 ± 0.42 |  | 
FHPDPRQKALYRRLATVHMSRMIN [CLPTM1] | 2.58 ± 0.55 | 2.39 ± 0.25 |  | 

Sequence | protein stability index [1] | protein stability index [2] | protein stability index [3] | protein stability index [4]
FHVDSAAEYYRLHLEGYHGTAGDS [TNXB] | 2.81 ± 0.27 | 3.17 ± 0.31 |  | 
FITRQLKGLEDTKSPQFNRYFYLL [PDS5B] | 2.01 ± 0.37 | 2.11 ± 0.16 |  | 
FIVLFLLWPFAWLQVAGLSEEQLQ [LPCAT4] | 2.65 ± 0.13 | 3.05 ± 0.59 |  | 
FKHPSIRNPVSLVVTRLVILGSGE [ADAMTS4] |  | 3.03 ± 0.97 |  | 
FKRRRVRRRRMETIVFLDKEVFAS [PCMTD2] | 2.62 ± 0.16 | 2.86 ± 0.33 |  | 
FLPHHIMVKIFRLLPTKSLVALKC [FBXO34] | 2.76 ± 0.39 | 2.29 ± 0.74 |  | 
FLRQKVLSLPLPDPLKYYLLYYRE [PCMTD2] | 2.24 ± 0.34 | 2.26 ± 0.31 |  | 
FLSSEKQICGTHRQTKKMFCDMDK [TRIM43] | 3.18 ± 0.33 | 3.4 ± 0.19 |  | 
FLTVGSVLQMWHIVDKCTELLREG [ZBTB22] | 3.09 ± 0.55 | 3.4 ± 0.32 |  | 
FLTYVPLLGLKAFLGLFFIVRFLE [FADS1] | 2.56 ± 0.6 | 2.17 ± 0.67 |  | 
FNDPFFIVETVCIVWFSFEFVVRC [KCNA4] | 3.38 ± 0.68 | 3.45 ± 0.98 |  | 
FPHPLWLRDTYKLWVPQPPPRTIK [PWWP2B] | 2.33 ± 0.17 | 2.71 ± 0.33 |  | 
FQEDVPMSTEEQYRIRQVNIYYYL [EFHC1] | 2.52 ± 0.78 | 2.22 ± 0.15 |  | 
FQKSLVLISKLPYIHFFHTVLKQI [DENND6A] | 2.67 ± 0.72 | 2.42 ± 0.63 |  | 
FRKEIKSKSADNQEYFERHRWPPV [RHOBTB1] | 3.45 ± 0.44 | 3.26 ± 0.16 |  | 
FSDVTFILDDGTISAHKPLLISSC [RHOBTB2] | 2.47 ± 0.15 | 2.25 ± 0.29 |  | 
FSKVKTSLGLDHCHSFISGTAPLN [ACSBG2] | 2.52 ± 0.3 | 2.44 ± 0.29 |  | 
FSPNSPQFNVSGPGLLEEDNQWMT [NECAB1] | 3.23 ± 0.34 | 3.58 ± 0.3 |  | 
FSRAPVSALPLAPNHLGGGAVVLG [STX5] | 2.81 ± 0.11 | 2.98 ± 0.17 |  | 
FSTILHLLLGSPHPAATALHAELC [LPCAT4] | 3.14 ± 0.47 | 2.73 ± 0.53 |  | 
FTDCSFFVRGQEFKAHKSVLAARS [SPOPL] | 2.95 ± 0.69 | 2.61 ± 0.57 |  | 
FVGAIFNGLTLLILGVIGLFTIPL [RTN2] | 2.02 ± 0.11 | 2.27 ± 0.42 |  | 
FVVMGVIGGLLGATFNCLNKRLAK [CLCN6] | 2.55 ± 0.39 | 2.7 ± 0.59 |  | 

Sequence | protein stability index [1] | protein stability index [2] | protein stability index [3] | protein stability index [4]
FWEEHKASLGREESRAPSPLLHKD [CBY2] | 4.61 ± 0.17 | 4.71 ± 0.21 |  | 
FYAITTLHNLLLHQEGAKMAVRLA [CTNNB1] | 3.02 ± 0.17 | 2.79 ± 0.15 |  | 
GADREFIEARRRALKRFVNLVARH [SNX8] | 2.45 ± 0.15 | 2.64 ± 0.25 |  | 
GAQMEKEWARALETRDWGGAQFEG [ZSWIM9] | 4.11 ± 0.26 | 4.22 ± 0.1 |  | 
GDFAWERVRGLGLPKLYLPTGPRR [CDKN1A] | 2.98 ± 0.32 | 3.32 ± 0.4 |  | 
GEDQAFGDWLLTANGSEIHKHVHF [SLC22A15] | 3.03 ± 0.26 | 3.09 ± 0.26 |  | 
GEEPVPHQQVEEALSFTLLGSAPL [NEK8] | 4.33 ± 0.22 | 4.32 ± 0.29 |  | 
GEEQAQLLHVSSPNLASDSDLSRR [KCNA1] | 5.36 ± 0.16 | 5.33 ± 0.11 |  | 
GEEQLKTHKKCKEEVVSTLDAVQV [FCHO1] | 4.13 ± 0.38 | 4.12 ± 0.19 |  | 
GEKMVAAKVKGEKLDKKLKKMEQN [ATF4] | 5 ± 0.27 | 4.76 ± 0.18 |  | 
GELLNMIVAVIDSAQLQELVCHVM [INTS3] | 2.92 ± 0.59 | 2.6 ± 0.72 |  | 
GELRRRPGDMKTKMELLILETQAQ [CPOX] | 3.34 ± 0.18 | 3.43 ± 0.26 |  | 
GETRICKIYDSPCLPEAEAMFAIN [RAD51] | 3.53 ± 0.4 | 3.65 ± 0.35 |  | 
GFFLLQLANHTGYIKVDWQRVEKD [FUNDC2] | 2.34 ± 0.69 | 2.11 ± 0.37 |  | 
GFGLAHTPLEPDAKDLPCDSKPES [TBX5] | 5.38 ± 0.51 | 5.47 ± 0.43 |  | 
GFIRFDKRIEAEEAIKGLNGQKPL [ELAVL3] | 3.66 ± 0.42 | 4.08 ± 0.49 |  | 
GGAAGAGWCIFVYNLSPEADESVL [ELAVL3] | 3.22 ± 1.1 | 2.52 ± 0.91 |  | 
GGIPALVKMLGSPVDSVLFYAITT [CTNNB1] | 3.19 ± 0.79 | 3.07 ± 0.99 |  | 
GGSGGGGGGDEDGSLGSRAEPAPR [SMAD6] | 5.38 ± 0.21 | 5.41 ± 0.13 |  | 
GGSGGGSHHHHQSRGACTSHDPQS [KCNA4] | 5.08 ± 0.24 | 5.12 ± 0.33 |  | 
GISTGHWSGEVKDKNVQVVELPIV [FUT8] | 3.8 ± 0.31 | 3.9 ± 0.37 |  | 
GKDCFLELAPDFVGDILWEHLEIL [ETS1] | 2.42 ± 0.54 | 2.05 ± 0.39 |  | 
GKSFCHSTHLTVHRRIHTGEKPYE [ZNF8] | 3 ± 0.16 | 3.35 ± 0.3 |  | 

Sequence | protein stability index [1] | protein stability index [2] | protein stability index [3] | protein stability index [4]
GKSFNRHCNLIRHQKIHTVAELV [ZSCAN9] |  |  | 2.08 ± 0.28 | 2.05 ± 0.33
GLKADTLKERYQKIGDTKRNTPIE [CSNK1G1] | 4.36 ± 0.26 | 4.53 ± 0.12 |  | 
GLLLESLVPFIVNDNITNNFFRFL [DYNC2LI1] | 2.9 ± 0.44 | 3.17 ± 0.62 |  | 
GNNLHNASIPEHLAYGSVITVKNL [POMT2] | 3.05 ± 0.37 | 3.02 ± 0.28 |  | 
GNQDYKYRVSDVTKAGHSLELIEP [VDR] | 4.24 ± 0.22 | 4.3 ± 0.26 |  | 
GNVKIDSQKLNFREHAKARVDHGA [MAP2] | 4.22 ± 0.14 | 4.23 ± 0.52 |  | 
GQSDFRPKNGRHAWIWHDCHRHYH [LOXL2] | 2.54 ± 0.29 | 3.03 ± 0.45 |  | 
GQVLHFENVKDVPFGFQTVTSDVN [SERPINB5] | 3.85 ± 0.36 | 3.84 ± 0.42 |  | 
GRKQPGVHEEPVLKKWPKLKSKK [C22orf31] |  |  | 5.16 ± 0.26 | 5.08 ± 0.24
GRLLLTLPLLRQTAGKVLAHFYGV [ESRRA] | 2.78 ± 0.54 | 3.05 ± 0.88 |  | 
GRPKELQPKKLHLCPLCGKNFSNN [ZNF263] | 2.88 ± 0.46 | 3.58 ± 0.52 |  | 
GRTGTLIACYVMKHYRFTHAEIIA [CDC14A] | 2.74 ± 0.89 | 3.11 ± 0.45 |  | 
GSGGGYGGGMRVCGFGGGAGSVFG [KRT15] | 2.18 ± 0.29 | 2.34 ± 0.22 |  | 
GSKCSPEDLATAYNNRGQIKYFRV [TTC32] | 2.16 ± 0.21 | 2.13 ± 0.37 |  | 
GSKEGNHHSTQPKRNKRNPIFQDS [FAM104B] | 4.57 ± 0.21 | 4.55 ± 0.3 |  | 
GSMEALNLKQLRKRGSIPTSLTAL [PPFIA4] | 3.11 ± 0.2 | 3.11 ± 0.22 |  | 
GSSGSYFVKDPQGRIIAVFKPKNE [PI4K2A] | 3.34 ± 0.16 | 3.66 ± 0.12 |  | 
GTQFTFDQDPSVLYFSIHRYEQGR [HDAC6] | 2.31 ± 0.51 | 2.52 ± 0.34 |  | 
GVTAIIFCVALSDYDLVLAEDEEM [GNAI1] | 3.86 ± 0.17 | 2.75 ± 0.9 |  | 
GVVMKVRIPTCHDKPGTTQIVQLT [DENND6A] | 2.02 ± 0.19 | 2.15 ± 0.4 |  | 
